T1: human beta-Klotho (Homo sapiens, UniProt Q86Z14)
T1 sequence (Q86Z14 1-1044): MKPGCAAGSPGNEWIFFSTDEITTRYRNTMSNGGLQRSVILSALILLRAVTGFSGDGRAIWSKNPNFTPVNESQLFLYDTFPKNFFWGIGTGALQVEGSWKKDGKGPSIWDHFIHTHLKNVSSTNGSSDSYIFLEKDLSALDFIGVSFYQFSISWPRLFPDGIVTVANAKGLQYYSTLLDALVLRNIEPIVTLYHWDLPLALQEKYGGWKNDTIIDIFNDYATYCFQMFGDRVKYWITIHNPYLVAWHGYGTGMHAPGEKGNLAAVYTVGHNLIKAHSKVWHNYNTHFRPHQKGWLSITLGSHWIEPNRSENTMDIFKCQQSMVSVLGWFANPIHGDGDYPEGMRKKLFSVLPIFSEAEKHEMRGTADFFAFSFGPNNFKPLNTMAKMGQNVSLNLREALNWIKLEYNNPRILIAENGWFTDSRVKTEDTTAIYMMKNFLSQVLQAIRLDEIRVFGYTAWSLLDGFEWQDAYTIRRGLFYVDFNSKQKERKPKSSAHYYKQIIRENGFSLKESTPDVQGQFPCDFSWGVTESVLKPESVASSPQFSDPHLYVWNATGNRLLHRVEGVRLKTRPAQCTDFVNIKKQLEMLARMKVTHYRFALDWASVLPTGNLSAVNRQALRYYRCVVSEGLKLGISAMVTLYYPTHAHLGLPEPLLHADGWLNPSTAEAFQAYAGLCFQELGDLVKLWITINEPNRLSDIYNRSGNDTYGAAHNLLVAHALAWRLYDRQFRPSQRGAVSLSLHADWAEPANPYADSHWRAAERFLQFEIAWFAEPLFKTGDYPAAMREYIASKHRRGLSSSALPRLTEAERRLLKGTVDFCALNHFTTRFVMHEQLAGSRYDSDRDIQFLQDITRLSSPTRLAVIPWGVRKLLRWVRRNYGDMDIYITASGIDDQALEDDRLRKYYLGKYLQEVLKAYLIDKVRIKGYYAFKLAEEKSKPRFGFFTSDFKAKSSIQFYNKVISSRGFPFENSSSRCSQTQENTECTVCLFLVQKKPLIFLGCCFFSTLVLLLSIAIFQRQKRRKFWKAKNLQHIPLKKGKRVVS

B1: Ab0379: IgG4 PE; 16H7 VL (Y48del, D95V, W90F, S1C, S94C); 16H7 VH (M34V, F54W, I83T, D109E) (antibody)
VH: QVTLKESGPVLVKPTETLTLTCTVSGFSLNNARVGVSWIRQPPGKALEWLAHIWSNDEKSYSTSLKSRLTISKDTSKSQVVLTMTNMDPVDTATYYCARSVVTGGYYYEGMDVWGQGTTVTVSS
light: CYVLTQPPSVSVAPGQTARITCGGNNIGSESVHWYQQKPGQAPVLVVDDSDRPSGIPERFSGSNSGNTATLTISRVEAGDEADYYCQVFDGNCVHVVFGGGTKLTVLGQPKANPTVTLFPPSSEELQANKATLVCLISDFYPGAVTVAWKADGSPVKAGVETTKPSKQSNNKYAASSYLSLTPEQWKSHRSYSCQVTHEGSTVEKTVAPTECS
B2: Ab0391: IgG4 PE; 16H7 VL (Y48del, D95S, W90F, S94C, H96C); 16H7 VH (M34V, H52S, F54W, I83T, D109E) (antibody)
VH: QVTLKESGPVLVKPTETLTLTCTVSGFSLNNARVGVSWIRQPPGKALEWLASIWSNDEKSYSTSLKSRLTISKDTSKSQVVLTMTNMDPVDTATYYCARSVVTGGYYYEGMDVWGQGTTVTVSS
light: SYVLTQPPSVSVAPGQTARITCGGNNIGSESVHWYQQKPGQAPVLVVDDSDRPSGIPERFSGSNSGNTATLTISRVEAGDEADYYCQVFDGNCSCVVFGGGTKLTVLGQPKANPTVTLFPPSSEELQANKATLVCLISDFYPGAVTVAWKADGSPVKAGVETTKPSKQSNNKYAASSYLSLTPEQWKSHRSYSCQVTHEGSTVEKTVAPTECS
B3: Ab0390: IgG4 PE; 16H7 VL (Y48del, D95S, W90F, S94C, H96C); 16H7 VH (M34V, F54W, I83T, D109E) (antibody)
VH: QVTLKESGPVLVKPTETLTLTCTVSGFSLNNARVGVSWIRQPPGKALEWLAHIWSNDEKSYSTSLKSRLTISKDTSKSQVVLTMTNMDPVDTATYYCARSVVTGGYYYEGMDVWGQGTTVTVSS
light: SYVLTQPPSVSVAPGQTARITCGGNNIGSESVHWYQQKPGQAPVLVVDDSDRPSGIPERFSGSNSGNTATLTISRVEAGDEADYYCQVFDGNCSCVVFGGGTKLTVLGQPKANPTVTLFPPSSEELQANKATLVCLISDFYPGAVTVAWKADGSPVKAGVETTKPSKQSNNKYAASSYLSLTPEQWKSHRSYSCQVTHEGSTVEKTVAPTECS
B4: Ab0389: IgG4 PE; 16H7 VL (Y48del, D95S, W90F, S1C, S94C); 16H7 VH (M34V, H52S, F54W, I83T, D109E) (antibody)
VH: QVTLKESGPVLVKPTETLTLTCTVSGFSLNNARVGVSWIRQPPGKALEWLASIWSNDEKSYSTSLKSRLTISKDTSKSQVVLTMTNMDPVDTATYYCARSVVTGGYYYEGMDVWGQGTTVTVSS
light: CYVLTQPPSVSVAPGQTARITCGGNNIGSESVHWYQQKPGQAPVLVVDDSDRPSGIPERFSGSNSGNTATLTISRVEAGDEADYYCQVFDGNCSHVVFGGGTKLTVLGQPKANPTVTLFPPSSEELQANKATLVCLISDFYPGAVTVAWKADGSPVKAGVETTKPSKQSNNKYAASSYLSLTPEQWKSHRSYSCQVTHEGSTVEKTVAPTECS
B5: Ab0393: IgG4 PE; 16H7 VL (Y48del, D95S, W90F, S94C, H96C); 16H7 VH (M34V, H52W, I83T, D109E) (antibody)
VH: QVTLKESGPVLVKPTETLTLTCTVSGFSLNNARVGVSWIRQPPGKALEWLAWIFSNDEKSYSTSLKSRLTISKDTSKSQVVLTMTNMDPVDTATYYCARSVVTGGYYYEGMDVWGQGTTVTVSS
light: SYVLTQPPSVSVAPGQTARITCGGNNIGSESVHWYQQKPGQAPVLVVDDSDRPSGIPERFSGSNSGNTATLTISRVEAGDEADYYCQVFDGNCSCVVFGGGTKLTVLGQPKANPTVTLFPPSSEELQANKATLVCLISDFYPGAVTVAWKADGSPVKAGVETTKPSKQSNNKYAASSYLSLTPEQWKSHRSYSCQVTHEGSTVEKTVAPTECS
B6: Ab0380: IgG4 PE; 16H7 VL (Y48del, D95V, W90F, S1C, S94C); 16H7 VH (M34V, H52S, F54W, I83T, D109E) (antibody)
VH: QVTLKESGPVLVKPTETLTLTCTVSGFSLNNARVGVSWIRQPPGKALEWLASIWSNDEKSYSTSLKSRLTISKDTSKSQVVLTMTNMDPVDTATYYCARSVVTGGYYYEGMDVWGQGTTVTVSS
light: CYVLTQPPSVSVAPGQTARITCGGNNIGSESVHWYQQKPGQAPVLVVDDSDRPSGIPERFSGSNSGNTATLTISRVEAGDEADYYCQVFDGNCVHVVFGGGTKLTVLGQPKANPTVTLFPPSSEELQANKATLVCLISDFYPGAVTVAWKADGSPVKAGVETTKPSKQSNNKYAASSYLSLTPEQWKSHRSYSCQVTHEGSTVEKTVAPTECS
B7: Ab0383: IgG4 PE; 16H7 VL (Y48del, D95V, W90F); 16H7 VH (M34V, H52W, I83T, D109E) (antibody)
VH: QVTLKESGPVLVKPTETLTLTCTVSGFSLNNARVGVSWIRQPPGKALEWLAWIFSNDEKSYSTSLKSRLTISKDTSKSQVVLTMTNMDPVDTATYYCARSVVTGGYYYEGMDVWGQGTTVTVSS
light: SYVLTQPPSVSVAPGQTARITCGGNNIGSESVHWYQQKPGQAPVLVVDDSDRPSGIPERFSGSNSGNTATLTISRVEAGDEADYYCQVFDGNSVHVVFGGGTKLTVLGQPKANPTVTLFPPSSEELQANKATLVCLISDFYPGAVTVAWKADGSPVKAGVETTKPSKQSNNKYAASSYLSLTPEQWKSHRSYSCQVTHEGSTVEKTVAPTECS
B8: Ab0382: IgG4 PE; 16H7 VL (Y48del, D95V, W90F, S94C, H96C); 16H7 VH (M34V, H52S, F54W, I83T, D109E) (antibody)
VH: QVTLKESGPVLVKPTETLTLTCTVSGFSLNNARVGVSWIRQPPGKALEWLASIWSNDEKSYSTSLKSRLTISKDTSKSQVVLTMTNMDPVDTATYYCARSVVTGGYYYEGMDVWGQGTTVTVSS
light: SYVLTQPPSVSVAPGQTARITCGGNNIGSESVHWYQQKPGQAPVLVVDDSDRPSGIPERFSGSNSGNTATLTISRVEAGDEADYYCQVFDGNCVCVVFGGGTKLTVLGQPKANPTVTLFPPSSEELQANKATLVCLISDFYPGAVTVAWKADGSPVKAGVETTKPSKQSNNKYAASSYLSLTPEQWKSHRSYSCQVTHEGSTVEKTVAPTECS
B9: Ab0381: IgG4 PE; 16H7 VL (Y48del, D95V, W90F, S94C, H96C); 16H7 VH (M34V, F54W, I83T, D109E) (antibody)
VH: QVTLKESGPVLVKPTETLTLTCTVSGFSLNNARVGVSWIRQPPGKALEWLAHIWSNDEKSYSTSLKSRLTISKDTSKSQVVLTMTNMDPVDTATYYCARSVVTGGYYYEGMDVWGQGTTVTVSS
light: SYVLTQPPSVSVAPGQTARITCGGNNIGSESVHWYQQKPGQAPVLVVDDSDRPSGIPERFSGSNSGNTATLTISRVEAGDEADYYCQVFDGNCVCVVFGGGTKLTVLGQPKANPTVTLFPPSSEELQANKATLVCLISDFYPGAVTVAWKADGSPVKAGVETTKPSKQSNNKYAASSYLSLTPEQWKSHRSYSCQVTHEGSTVEKTVAPTECS
B10: Ab0392: IgG4 PE; 16H7 VL (Y48del, D95S, W90F); 16H7 VH (M34V, H52W, I83T, D109E) (antibody)
VH: QVTLKESGPVLVKPTETLTLTCTVSGFSLNNARVGVSWIRQPPGKALEWLAWIFSNDEKSYSTSLKSRLTISKDTSKSQVVLTMTNMDPVDTATYYCARSVVTGGYYYEGMDVWGQGTTVTVSS
light: SYVLTQPPSVSVAPGQTARITCGGNNIGSESVHWYQQKPGQAPVLVVDDSDRPSGIPERFSGSNSGNTATLTISRVEAGDEADYYCQVFDGNSSHVVFGGGTKLTVLGQPKANPTVTLFPPSSEELQANKATLVCLISDFYPGAVTVAWKADGSPVKAGVETTKPSKQSNNKYAASSYLSLTPEQWKSHRSYSCQVTHEGSTVEKTVAPTECS

In the assay the target is T1, human beta-Klotho. Kind of assay: SPR off-rate screening of antibody mutants (human beta-Klotho captured by anti-His antibody). Type of assay: binding. Particulars: mean, n=3. As to the method: Screening of antibody mutants for binding to human beta-Klotho was determined in a different SPR assay set up. Human beta-Klotho was affinity captured by an anti-His antibody (from His capture kit, GE Healthcare) that was immobilized to a series S CM5 chip (GE Healthcare) by amine reactive coupling as described above. The antibody samples were used as analytes at 50 nmol/L concentration. Association time was 240 sec and dissociation time was 300 sec. Chip surfaces were regenerated using the regeneration solution supplied with the His capture kit. The off-rates (kd) were determined using single exponential fitting in the Biacore 8K Evaluation Software version 1.1.1.7442 (GE Healthcare).
For the molecule B1, the “koff human KLB” value is given as “no binding”.

Regarding B2, the “koff human KLB” value is listed as “no binding”.

For B3, the “koff human KLB” value is recorded as “no binding”.

Turning to B4, the “koff human KLB” value is listed as “no binding”.

B5: the “koff human KLB” value is recorded as “no binding”.

With B6, the “koff human KLB” value was “no binding”.

Regarding B7, the “koff human KLB” value is on record as “no binding”.

For the molecule B8, the “koff human KLB” value is “no binding”.

For B9, the “koff human KLB” value was “no binding”.

Regarding B10, the “koff human KLB” value was “no binding”.

These data come from patent US20250115669A1, “FGFR1/KLB Targeting Agonistic Antigen-Binding Proteins and Conjugates Thereof with GLP-1R Agonistic Peptides” (SANOFI, priority 2020, published 2025).
